Data published in patent publication US12168677B2, “Proteins for the treatment of epithelial barrier function disorders” (Genevive, Inc., priority 2017, dated 2024).

B1: SG-16: 119 amino acid protein (SEQ ID NO:9) encoded by the genome of Eubacterium eligens (protein, listed as Eubacterium eligens)
chain: MTGCSGSKEPDNKTSVDYTVVENADLPEELKKLIESKKDKVMRLTYTTKDYTYVVAGYGTRETSGYSIKVNDVYTGDNALYIDLNLIGPAAGEAVNEVETYPVIVLKMERREESVVFKM
B2: SG-18: 267 amino acid protein (SEQ ID NO:19) encoded by the genome of Clostridium bartlettii sp. nov. (protein, listed as Clostridium bartlettii)
chain: EVDSSKEQATSKDEKQVVVATSVAITEILDRLGVEVSGVPQTSYELPESAKGATEIGSPMNPDMEIIKSLNPTDVICVDTLGSDFEKQFEENNINADFYNLSNVDGLKETIAALGEKFNKQDKANEILDEIKEVENKVNSNKKSDDKILVLFGAPGSVMVATDKSYIGNLVELAGGNNIFSNATSSFTQINLEEIIKLNPDKILVMTHAVPEAAKKSVEEELSKDLWKNVNAVKNNDITYLENGYFGMSANLQIVEAVEKLGDILYE
B3: SG-15: 400 amino acid protein (SEQ ID NO:1) encoded by the genome of Eubacterium eligens (protein, listed as Eubacterium eligens)
chain: EYTEIRTASELVEAAKSASGNYKLMTDIDMTGVEWTPWDFSGTFDGNGHSILNLSVKTVSKKTMKTYDGNRKEYKTYGAGFFGVLTGAKVTGLDIYGARIEITTTEPCFAAPIAGLADDSDISDCIIKDTYVSLTDSAKMWGTGGIAGFGSGNLDNITTDVTLVCVDTDAAVRDEQFMGGAYAAGFLNIRNCSITIDGYDSDHGYVHDGGLVGMYMVYPLELSKTYQGEVLNNKVKGMITFFEDNTDRRAYCQANMGEVMNWTYAYSGFTSDFKRNETYDYSVTLLPEMCSNPSYTDVVTEATASDFGYTTHTCSTCGYTYSDTYTIHEHKVDSYSVVKEAASTDKKDGIEAGTCSLCNQTVYREYAANVVTDDNTQATDNKASGTAVKKGMKESTAVFA
B4: SG-17: 327 amino acid protein (SEQ ID NO:13) encoded by the genome of Eubacterium eligens (protein, listed as Eubacterium eligens)
chain: CNSKIDVKYDYNVEDYVQLGQYENISVQVDKTSIENELIESKIKQDVEDNTTYTEVDRGAIASDQILVTYTATSSGASLSGLTNTDGKTMILGTDTLGLELDELDQALYGMTPGQTKILIVDIPEDYSSDLYKGTRVVFELTMQTVAQANVPMITNAYVKEAFGYDTVEEYRQSIKESLETDINSKVENKIQEDVLSSLQDTFKISSYPDSLMEETRSRLETSIGFYADFSNLSKDEYCQKQYGLSFDDFVKKSVVQQLIMEAIVKDRNMTMREYDYKGSLDDFAADNGYSNADTFVEKFGKDKIVKAMLVQKAQDYVIEHANISYK

Assays:
[1] = tested on: IL-23; test: IL-23 production by monocytes in co-culture TEER assay (Luminex); assay type: cell-based, human; conditions: for IL-23 production normalized to HK E. coli only (set to 1.0): pre-incubated 6 hours prior to HK E. coli, basolateral supernatant
Procedure: (§1) Production of the cytokines TNF-α, IL-23, and IL-10 by monocytes was measured in the tissue culture supernatant from the basolateral chamber of the co-culture TEER assay performed in Example 1B. Following TEER readings, the supernatants were centrifuged at 10,000 g for 5 minutes at 4° C. to remove cell debris. Luminex analysis was performed according to the manufacturer's instructions (Magpix instrument and xPonent software version 4.2; Luminex Corporation (Austin, TX)). Luminex analysis was performed to determine the […] concentration of TNF-α and IL-23 produced by monocytes. Luminex analysis utilizes a bead-based system for quantification of multiple cytokines from a single sample. Like an ELISA, Luminex beads are coated with a capture antibody, and incubation with samples allows the target to bind to the capture antibody. Beads are washed and incubated with a fluorescently labeled detection antibody for quantification of bound target. Cytometric analysis is used to differentiate bead populations, which are loaded with differential fluorescent dyes, and to quantify cytokine levels by measuring detection antibody signal. TNF-α, IL-23, and IL-10 production in untreated cells and cells pre-incubated with SG-15 for 6 hours prior to HK E. coli treatment was normalized to pg/ml concentrations elicited by HK E. coli only, which was set to 1.0. […] The graphs in FIGS. 2A, 2B and 2C each represent data pooled from an individual experiment (n=3).

[2] = tested on: DSS treated mice; test: DSS model: colon weight to length ratio; assay type: in vivo, C57BL/6 mice; conditions: 2.5% DSS 6 days
Procedure: Eight-week old C57BL/6 mice were housed 5 animals were cage and given food and water ad libitum for 7 days. Following the 7-day acclimation period, treatments were initiated concurrently with addition of 2.5% DSS to the drinking water. […] The mice were treated with 2.5% dextran sodium sulfate (DSS) in their drinking water for 6 days. Treatments were continued with SG-15 or […]-GLP2 twice a day (b.i.d.) in the morning and evening (every 8 and 16 hr) with i.p. injections at 50 nmoles/kg. Fresh 2.5% DSS drinking water was prepared every 2 days. Colon length and weight were measured in mice included in the DSS model study described in Example 1E. […] Accordingly, the ratio of tissue weight to length can be used as a readout of DSS induced tissue damage. SG-15 administration to DSS treated mice (Example 1E) reduced the colon weight to length ratio elicited by DSS (DSS=3.9 mg/mm, DSS+SG-15=3.5 mg/mm; p=0.13). […] However, no difference was observed between treated with SG-15 as compared to treatment with […]GLP2. The graph in FIG. 9 represents data pooled from the 2 individual experiments (n=20).

[3] = tested on: HCT8 enterocytes and HT29-MTX goblet cells; test: Epithelial cell wound healing (Oris Cell Migration assay); assay type: cell-based, human; conditions: SG protein 1 μg/ml, EGF 30 ng/ml, staurosporine 100 nM; 48 hours
Source text: HCT8 enterocytes and HT29-MTX goblet cells were used in wound healing studies. The 96 well Oris Cell Migration assay containing plugs preventing cell attachment in the center of each well was used according to the manufacturer's instructions (Platypus Technologies, Madison, WI). The migration assay plates were warmed to room temperature prior to use and plugs were removed from 100% confluence wells prior to cell addition. The HCT8 enterocyte and HT29-MTX goblet cell lines were used at a 9:1 ratio with a total of 5×10^4 total cells added per well (4.5×10^4 HCT8 cells and 0.5×10^4 HT29-MTX cells). […] Plugs were then removed from all control and sample wells. Control wells included cells treated with the diluent vehicle as the blank, 30 ng/ml epidermal growth factor (EGF) as the positive control, and 100 nM staurosporine as the negative control, all diluted in cRPMI. Sample wells contained SG-15 protein at a concentration of 1 μg/ml diluted in cRPMI. 100% and 0% wells were cultured in cRPMI. […] Prior to staining for viable cells, plugs were removed from the 0% wells. Treatment media was removed and cells were washed in PBS containing 0.9 mM CaCl2) and 0.5 mM MgCl2. […] Relative fluorescent values from 100% wells where plugs were removed prior to cell plating were set as the max effect, and 0% wells where plugs remained in place until immediately before staining were used as the baseline. Samples were normalized between 100% and 0% samples and values expressed as a percent growth.

[4] = tested on: DSS treated mice; test: DSS model of inflammatory bowel disease: 4KDa-FITC dextran translocation across the epithelial barrier; assay type: in vivo, C57BL/6 mice; conditions: 50 nmoles/kg i.p. b.i.d., 2.5% DSS 6 days; for 4KDa-FITC dextran in serum compared to DSS mice treated with vehicle: day 6
Procedure: Specifically, the mice in Example 1E were treated with dextran sodium sulfate (DSS), a chemical known to induce intestinal epithelial damage and thereby reduce intestinal barrier integrity and function. DSS mice are well-accepted models of colitis. In Example 1E, mice were treated with SG-15 protein approximately concurrent with (6 hours prior to) administration of DSS. The mice were then assessed for effects of SG-15 on clinically relevant markers of improved health. Eight-week old C57BL/6 mice were housed 5 animals were cage and given food and water ad libitum for 7 days. Following the 7-day acclimation period, treatments were initiated concurrently with addition of 2.5% DSS to the drinking water. […] The mice were treated with 2.5% dextran sodium sulfate (DSS) in their drinking water for 6 days. Treatments were continued with SG-15 or […]-GLP2 twice a day (b.i.d.) in the morning and evening (every 8 and 16 hr) with i.p. injections at 50 nmoles/kg. Fresh 2.5% DSS drinking water was prepared every 2 days. On day six, mice were fasted for four hours and then orally gavaged with 600 mg/kg 4 KDa dextran labeled with fluorescein isothiocyanate (FITC) [4KDa-FITC]. One hour after the 4KDa-FITC gavage mice were euthanized, blood was collected and FITC signal was measured in serum. […] Results are shown in FIG. 4, and are presented as mean±SEM. The graph in FIG. 4 represents data pooled from 2 individual experiments (n=20).

[5] = tested on: IL-10; test: IL-10 production by monocytes in co-culture TEER assay (Luminex); assay type: cell-based, human; conditions: pre-incubated 6 hours prior to HK E. coli; basolateral supernatant
Procedure: as §1

[6] = tested on: TNF-α; test: TNF-α production by monocytes in co-culture TEER assay (Luminex); assay type: cell-based, human; conditions: pre-incubated 6 hours prior to HK E. coli; basolateral supernatant
Procedure: as §1

[7] = DSS model: body weight; assay type: in vivo, C57BL/6 mice; conditions: 50 nmoles/kg i.p. b.i.d.; 2.5% DSS 6 days; percent change from day 0
Procedure: Eight-week old C57BL/6 mice were housed 5 animals were cage and given food and water ad libitum for 7 days. Following the 7-day acclimation period, treatments were initiated concurrently with addition of 2.5% DSS to the drinking water. […] The mice were treated with 2.5% dextran sodium sulfate (DSS) in their drinking water for 6 days. Treatments were continued with SG-15 or […]-GLP2 twice a day (b.i.d.) in the morning and evening (every 8 and 16 hr) with i.p. injections at 50 nmoles/kg. Fresh 2.5% DSS drinking water was prepared every 2 days. Body weight was measured daily from mice included in the DSS model described in Example 1E. Percent change from starting weight on day 0 was determined for each mouse. […] Weight loss in mice treated with SG-15 at day 6 was similar to weight loss observed with […]-GLP2. The graphs in FIG. 6 represent data pooled from the 2 individual experiments (n=20).

[8] = DSS+SG protein, 50 nmoles/kg i.p. b.i.d., unit not given

Molecule | IL-23 production normalized to HK E. coli only (set to 1.0) [1] | Colon weight to length ratio [2, 8] | Wound healing, percent growth [3] | 4KDa-FITC dextran in serum compared to DSS mice treated with vehicle [4] | IL-10 production normalized to HK E. coli only (set to 1.0) [5] | TNF-α production normalized to HK E. coli only (set to 1.0) [6] | 4KDa-FITC dextran translocation compared to positive control Gly2-GLP2 [4] | Body weight compared to vehicle-treated DSS mice [7] | IL-23 production compared with control cells treated with media only ([1]; cells treated with SG-15 and HK E. coli) | Colon weight to length ratio, SG protein compared with Gly2-GLP2 ([2]; 50 nmoles/kg i.p. b.i.d.) | Colon weight to length ratio ([2]; DSS+SG-15, 50 nmoles/kg i.p. b.i.d.)
B1 | 1.06 | 4.1 | significant increase in growth | significant reduction in 4KDa-FITC dextran | 1.23 | 1.29 | – | – | – | – | –
B2 | 1.10 | 3.3 | slight increase in growth | significant reduction in 4KDa-FITC dextran | 0.93 | 1.06 | even lower than the positive control | did not alter body weight | – | – | –
B3 | 0.57 | – | significant increase in growth | significant reduction in 4KDa-FITC dextran | 0.66 | 0.91 | – | significantly improved body weight | no significant difference | no difference | 3.5 mg/mm
B4 | 1.10 | 3.14 | significant increase in growth | not altered | 0.51 | 0.73 | – | did not alter body weight | – | – | –
